Source: PMC7414021, “Dodecin as carrier protein for immunizations and bioengineering applications” (Scientific Reports, 2020)

Experiments:
Assay in all cases: SEC
[1] = molecular target: SpyT-PAS2-mtDod (Mycobacterium tuberculosis)
[2] = molecular target: SpyT-mtDod (Mycobacterium tuberculosis)
[3] = molecular target: SpyT-mtDod-SnpT (Mycobacterium tuberculosis)
[4] = molecular target: mtDod-GSG-Lys (Mycobacterium tuberculosis)
[5] = molecular target: mtDod-PAS2-SpyT (Mycobacterium tuberculosis)
[6] = molecular target: mtDod-PAS-Met (Mycobacterium tuberculosis)
[7] = molecular target: mtDod-SpyT (Mycobacterium tuberculosis)
[8] = molecular target: mtDod-msfGFP-H8 (Mycobacterium tuberculosis | not stated)

With SpyT-PAS2-mtDod the stoichiometry N [1] was 12.

SpyT-mtDod showed a stoichiometry N [2] of 12.

SpyT-mtDod-SnpT gave a stoichiometry N [3] of 12.

mtDod-GSG-Lys showed a stoichiometry N [4] of 12.

mtDod-PAS2-SpyT was tested, and the stoichiometry N [5] was 12.

In the case of mtDod-PAS-Met, the stoichiometry N [6] is reported as 12.

Substance mtDod-SpyT has a stoichiometry N [7] of 12.

For mtDod-msfGFP-H8, the stoichiometry N [8] was 12.
